Molecular target: HLA-A*02:01 (Homo sapiens, UniProt P04439, D140Y/D185E/D98H/E176V/E277Q/G131W/G231S/I119V/I121R/I166T/I218V/L300P/L318F/N151K/N90K/P208A/P217A/Q86G/Q94H/R138H/R169H/T345S)
Assay: MHC binding assay (UV-ligand exchange, ELISA of stabilized MHC complexes)
Settings: MHC class I binding score; binding to HLA-A*02:01 ranged by peptide exchange yield (UV-ligand exchange, ELISA)
Description: Candidate peptides for T cell based therapies according to the present invention were further tested for their MHC binding capacity (affinity). The individual peptide-MHC complexes were produced by UV-ligand exchange, where a UV-sensitive peptide is cleaved upon UV-irradiation, and exchanged with the peptide of interest as analyzed. Only peptide candidates that can effectively bind and stabilize the peptide-receptive MHC molecules prevent dissociation of the MHC complexes. To determine the yield of the exchange reaction, an ELISA was performed based on the detection of the light chain (β2m) of stabilized MHC complexes. The assay was performed as generally described in Rodenko et al. (Rodenko et al., 2006).
96 well MAXISorp plates (NUNC) were coated over night with 2 ug/ml streptavidin in PBS at room temperature, washed 4× and blocked for 1h at 37° C. in 2% BSA containing blocking buffer. […] Peptide-MHC monomers of the UV-exchange reaction were diluted 100 fold in blocking buffer. Samples were incubated for 1h at 37° C., washed four times, incubated with 2 ug/ml HRP conjugated anti-82m for 1h at 37° C., washed again and detected with TMB solution that is stopped with […]. Absorption was measured at 450 nm. Candidate peptides that show a high exchange yield (preferably higher than 50%, most preferred higher than 75%) are generally preferred for a generation and production of antibodies or fragments thereof, and/or T cell receptors or fragments thereof, as they show sufficient avidity to the MHC molecules and prevent dissociation of the MHC complexes.

Q: “446 (QLIPALAKV; listed as Homo sapiens) [compound 446]” was tested. Which Peptide exchange did it give?
A: ″+++″ (≥50% = +++)

Q: Which Peptide exchange does the source give for “218 (SALEELVNV; listed as Homo sapiens) [compound 218]” here?
A: ″++″ (≥20% = ++)

Q: “86 (NLIGKIENV; listed as Homo sapiens) [compound 86]” was tested. Which Peptide exchange did it give?
A: ″+++″ (≥50% = +++)

Q: “168 (KILDADIQL; listed as Homo sapiens) [compound 168]” was tested. Which Peptide exchange did it give?
A: ″++++″ (≥75% = ++++)

Q: For “502 (RLLAQVPGL; listed as Homo sapiens) [compound 502]”, which Peptide exchange is on record?
A: ″+++″ (≥50% = +++)

Q: Which Peptide exchange does the source give for “501 (LLDPNVKSIFV; listed as Homo sapiens) [compound 501]” here?
A: ″+++″ (≥50% = +++)

Q: With “76 (ILIDSIYKV; listed as Homo sapiens) [compound 76]” as the substance, how does the Peptide exchange read?
A: ″+++″ (≥50% = +++)

Q: How did the Peptide exchange turn out when “544 (LLWDVPAPSL; listed as Homo sapiens) [compound 544]” was run?
A: ″+++″ (≥50% = +++)

Q: How did the Peptide exchange turn out when “434 (KVSNSGITRV; listed as Homo sapiens) [compound 434]” was run?
A: ″++″ (≥20% = ++)

Q: Which Peptide exchange does the source give for “165 (SLLDEIRAV; listed as Homo sapiens) [compound 165]” here?
A: ″+++″ (≥50% = +++)

Q: “575 (YLISQVEGHQV; listed as Homo sapiens) [compound 575]” was tested. Which Peptide exchange did it give?
A: ″+++″ (≥50% = +++)

Q: How did the Peptide exchange turn out when “616 (VLIDEVESL; listed as Homo sapiens) [compound 616]” was run?
A: ″+++″ (≥50% = +++)

Q: Which Peptide exchange does the source give for “555 (YVLEGLKSV; listed as Homo sapiens) [compound 555]” here?
A: ″+++″ (≥50% = +++)

Q: For “557 (KLYDDMIRL; listed as Homo sapiens) [compound 557]”, which Peptide exchange is on record?
A: ″+++″ (≥50% = +++)

Q: How did the Peptide exchange turn out when “307 (ALPVSLPQI; listed as Homo sapiens) [compound 307]” was run?
A: ″+++″ (≥50% = +++)

Q: Which Peptide exchange does the source give for “391 (YVYPQRLNFV; listed as Homo sapiens) [compound 391]” here?
A: ″+++″ (≥50% = +++)

Q: For “369 (GLFPEHLIDV; listed as Homo sapiens) [compound 369]”, which Peptide exchange is on record?
A: ″+++″ (≥50% = +++)

Q: “169 (NLPEYLPFV; listed as Homo sapiens) [compound 169]” was tested. Which Peptide exchange did it give?
A: ″+++″ (≥50% = +++)

Q: “602 (YLLEQIKLIEV; listed as Homo sapiens) [compound 602]” was tested. Which Peptide exchange did it give?
A: ″++++″ (≥75% = ++++)

Q: “326 (FLPEALDFV; listed as Homo sapiens) [compound 326]” was tested. Which Peptide exchange did it give?
A: ″+++″ (≥50% = +++)

Q: For “180 (FQIDPHSGLVTV; listed as Homo sapiens) [compound 180]”, which Peptide exchange is on record?
A: ″++″ (≥20% = ++)

Q: Which Peptide exchange does the source give for “496 (FLVEKQPPQV; listed as Homo sapiens) [compound 496]” here?
A: ″+++″ (≥50% = +++)

Q: How did the Peptide exchange turn out when “202 (ALLDQQGSRWTL; listed as Homo sapiens) [compound 202]” was run?
A: ″+++″ (≥50% = +++)

Q: With “475 (LLLNEEALAQI; listed as Homo sapiens) [compound 475]” as the substance, how does the Peptide exchange read?
A: ″+++″ (≥50% = +++)

Q: “573 (ILVANAIVGV; listed as Homo sapiens) [compound 573]” was tested. Which Peptide exchange did it give?
A: ″+++″ (≥50% = +++)

Q: How did the Peptide exchange turn out when “583 (ILANDGVLLAA; listed as Homo sapiens) [compound 583]” was run?
A: ″+++″ (≥50% = +++)

Q: Which Peptide exchange does the source give for “317 (SLAALVVHV; listed as Homo sapiens) [compound 317]” here?
A: ″+++″ (≥50% = +++)

Q: Which Peptide exchange does the source give for “329 (FLVTLNNVEV; listed as Homo sapiens) [compound 329]” here?
A: ″++++″ (≥75% = ++++)

Q: “253 (GLDAATATV; listed as Homo sapiens) [compound 253]” was tested. Which Peptide exchange did it give?
A: ″++″ (≥20% = ++)

Q: With “142 (FLFATPVFI; listed as Homo sapiens) [compound 142]” as the substance, how does the Peptide exchange read?
A: ″+++″ (≥50% = +++)

Q: “481 (GLIEDYEALL; listed as Homo sapiens) [compound 481]” was tested. Which Peptide exchange did it give?
A: ″+++″ (≥50% = +++)

Q: “620 (KLLNKIYEA; listed as Homo sapiens) [compound 620]” was tested. Which Peptide exchange did it give?
A: ″++++″ (≥75% = ++++)

— patent publication US10472401B2, “Peptides and combination of peptides for use in immunotherapy against ovarian cancer and other cancers” (immatics biotechnologies GmbH, priority 2015, dated 2019)
